T1: rat CLDN18.2 (rat, UniProt Q5I0E5 1-261)
T1 chain: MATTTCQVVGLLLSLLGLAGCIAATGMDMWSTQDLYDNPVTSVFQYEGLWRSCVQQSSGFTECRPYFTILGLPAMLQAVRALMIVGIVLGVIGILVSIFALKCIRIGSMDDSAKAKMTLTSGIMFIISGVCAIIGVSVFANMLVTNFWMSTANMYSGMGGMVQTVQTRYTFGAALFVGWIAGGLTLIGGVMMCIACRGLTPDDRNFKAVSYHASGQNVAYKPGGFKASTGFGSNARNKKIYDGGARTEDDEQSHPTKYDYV

T2: mouse CLDN18.2 (mouse, UniProt P56857 1-264)
T2 chain: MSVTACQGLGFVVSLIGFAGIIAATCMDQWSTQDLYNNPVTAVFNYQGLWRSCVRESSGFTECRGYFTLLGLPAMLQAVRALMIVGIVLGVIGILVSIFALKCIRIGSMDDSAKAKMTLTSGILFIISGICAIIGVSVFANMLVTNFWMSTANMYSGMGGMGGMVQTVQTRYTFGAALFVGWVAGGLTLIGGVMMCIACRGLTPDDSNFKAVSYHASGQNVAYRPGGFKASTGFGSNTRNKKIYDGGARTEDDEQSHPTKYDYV


Tests used:
Assay in all cases: flow cytometry, HEK293 cells
rat CLDN18.2 = target: T1, rat CLDN18.2
mouse CLDN18.2 = target: T2, mouse CLDN18.2
human CLDN18.2 = human CLDN18.2 (human, UniProt P56856 1-261)
Sequence of human CLDN18.2 (P56856 other isoform, or with tags, fused parts or gaps): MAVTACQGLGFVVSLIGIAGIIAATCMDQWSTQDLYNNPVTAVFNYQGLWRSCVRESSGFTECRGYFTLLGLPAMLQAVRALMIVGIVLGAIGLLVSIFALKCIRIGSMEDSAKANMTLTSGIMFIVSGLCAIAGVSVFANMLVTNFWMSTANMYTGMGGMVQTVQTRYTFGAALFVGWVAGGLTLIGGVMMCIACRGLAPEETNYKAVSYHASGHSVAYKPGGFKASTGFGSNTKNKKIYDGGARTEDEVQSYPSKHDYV

EC50 (rat CLDN18.2) [nM] | EC50 (mouse CLDN18.2) [nM] | EC50 (human CLDN18.2) [nM] | Binder
99.1 | 81.3 | 92.6 | 008LYG_D08 IgG1 (antibody, V domains shown) VH: QVQLVQSGAEVKKPGSSVKVSCKASGGTFSSYAISWVRQAPGQGLEWMGGIIPIFGTANYAQKFQGRVTITADESTSTAYMELSSLRSEDTAVYYCARGYQGMGVFDPWGQGTLVTVSS VL: not shown
– | – | 9.07 | 008LY1_D04 IgG1 (antibody, V domains shown) VH: QVQLVQSGAEVKKPGSSVKVSCKASGGTFSSYAISWVRQAPGQGLEWMGGIIPIFGTANYAQKFQGRVTITADESTSTAYMELSSLRSEDTAVYYCARGYVQYGYFDYWGQGTLVTVSS VL: not shown
10.5 | – | 13.1 | ZP1I18_B08 IgG1 (antibody, V domains shown) VH: QVQLVQSGAEVKKPGSSVKVSCKASGGTFSSYAISWVRQAPGQGLEWMGGIIPIFGTANYAQKFQGRVTITADESTSTAYMELSSLRSEDTAVYYCARGFIRYGVFDYWGQGTLVTVSS VL: not shown
11.1 | – | 8.55 | 008M0G_G03 IgG1 (antibody, V domains shown) VH: QVQLVQSGAEVKKPGSSVKVSCKASGGTFSSYAISWVRQAPGQGLEWMGGIIPIFGTANYAQKFQGRVTITADESTSTAYMELSSLRSEDTAVYYCARGYPRYGVFDYWGQGTLVTVSS VL: not shown
11.8 | – | 7.89 | ZP1I16_D05 IgG1 (antibody, V domains shown) VH: QVQLVQSGAEVKKPGSSVKVSCKASGGTFSSYAISWVRQAPGQGLEWMGGIIPIFGTANYAQKFQGRVTITADESTSTAYMELSSLRSEDTAVYYCARGFIRYGVFDYWGQGTLVTVSS VL: not shown
